Experimental data reported in article PMC11969024 (2025).

B1: peptide HD2 (from tick evasin EVA4) / CCL18 (biotinylated, synthetic) (parent complex)
chain 1: EEDDYTAYAPLTCYFT
chain 2: AQVGTNKELCCLVYTSWQIPQKFIVDYSETSPQCPKPGVILLTKRGRQICADPNKKWVQKYISDLKLNA

Variants of: B1

Variant	enrichment
chain 1 EEDDYTAYAPLTCYQT	-0.376 log2 (difference from the parental peptide)
chain 1 EEDDYTAYAPLTCYPT	-0.512 log2 (difference from the parental peptide)
chain 1 EEDDYTAYAPLFCYFT	-0.316 log2 (difference from the parental peptide)
chain 1 EEDDYTAYAPLECYFT	-0.867 log2 (difference from the parental peptide)
chain 1 EEDDYTAYAPLACYFT	-0.729 log2 (difference from the parental peptide)
chain 1 EEADYTAYAPLTCYFT	-0.703 log2 (difference from the parental peptide)
chain 1 EEIDYTAYAPLTCYFT	-2.12 log2 (difference from the parental peptide)
chain 1 EERDYTAYAPLTCYFT	-3.26 log2 (difference from the parental peptide)
chain 1 EELDYTAYAPLTCYFT	-2.02 log2 (difference from the parental peptide)
chain 1 EEEDYTAYAPLTCYFT	0.978 log2 (difference from the parental peptide)
chain 1 EEDDYTAYNPLTCYFT	-5.05 log2 (difference from the parental peptide)
chain 1 EEDDYTAYMPLTCYFT	-4.18 log2 (difference from the parental peptide)
chain 1 EEDDYTAYFPLTCYFT	-8.36 log2 (difference from the parental peptide)
chain 1 EEDDYTAYAPLTCSFT	-3.46 log2 (difference from the parental peptide)
chain 1 EEDDYTAYAPLTCWFT	-1.23 log2 (difference from the parental peptide)
chain 1 EEDDYTAYAPLTCFFT	0.0351 log2 (difference from the parental peptide)
chain 1 EKDDYTAYAPLTCYFT	-3.34 log2 (difference from the parental peptide)
chain 1 EVDDYTAYAPLTCYFT	-1.58 log2 (difference from the parental peptide)
chain 1 EDDDYTAYAPLTCYFT	-0.0115 log2 (difference from the parental peptide)

Variant	enrichment
chain 1 EEDDYSAYAPLTCYFT	2.9 log2 (difference from the parental peptide)
chain 1 EEDDYIAYAPLTCYFT	-4.4 log2 (difference from the parental peptide)
chain 1 EEDDYWAYAPLTCYFT	0.931 log2 (difference from the parental peptide)
chain 1 LEDDYTAYAPLTCYFT	-1.91 log2 (difference from the parental peptide)
chain 1 REDDYTAYAPLTCYFT	-3.04 log2 (difference from the parental peptide)
chain 1 YEDDYTAYAPLTCYFT	-1.67 log2 (difference from the parental peptide)
chain 1 PEDDYTAYAPLTCYFT	-2.16 log2 (difference from the parental peptide)
chain 1 EEDVYTAYAPLTCYFT	-3.19 log2 (difference from the parental peptide)
chain 1 EEDIYTAYAPLTCYFT	-2.18 log2 (difference from the parental peptide)
chain 1 EEDRYTAYAPLTCYFT	-2.64 log2 (difference from the parental peptide)
chain 1 EEDSYTAYAPLTCYFT	-2.31 log2 (difference from the parental peptide)
chain 1 EEDDYTAYAPLTNYFT	-8.4 log2 (difference from the parental peptide)
chain 1 EEDDYTAYAPLTRYFT	-9.16 log2 (difference from the parental peptide)
chain 1 EEDDYTAYAPLTCYFH	-0.148 log2 (difference from the parental peptide)
chain 1 EEDDYTAYAPLTCYFL	0.179 log2 (difference from the parental peptide)
chain 1 EEDDYTAYAPLTCYFQ	1.05 log2 (difference from the parental peptide)
chain 1 EEDDYTAYAPLTCYFG	1.32 log2 (difference from the parental peptide)
chain 1 EEDDYTAYAPLTCYFA	1.23 log2 (difference from the parental peptide)
chain 1 EEDDYTADAPLTCYFT	-6.74 log2 (difference from the parental peptide)

Variant	enrichment
chain 1 EEDDYTAQAPLTCYFT	-6.56 log2 (difference from the parental peptide)
chain 1 EEDDYTAPAPLTCYFT	-3.81 log2 (difference from the parental peptide)
chain 1 EEDDYTAFAPLTCYFT	2.01 log2 (difference from the parental peptide)
chain 1 EEDDYTAGAPLTCYFT	-6.32 log2 (difference from the parental peptide)
chain 1 EEDDYTTYAPLTCYFT	-0.452 log2 (difference from the parental peptide)
chain 1 EEDDYTYYAPLTCYFT	-0.717 log2 (difference from the parental peptide)
chain 1 EEDDYTMYAPLTCYFT	2.23 log2 (difference from the parental peptide)
chain 1 EEDDYTIYAPLTCYFT	-0.489 log2 (difference from the parental peptide)
chain 1 EEDDYTQYAPLTCYFT	2.05 log2 (difference from the parental peptide)
chain 1 EEDDYTAYAPNTCYFT	-3.89 log2 (difference from the parental peptide)
chain 1 EEDDYTAYAPSTCYFT	-0.148 log2 (difference from the parental peptide)
chain 1 EEDDYTAYAPRTCYFT	-0.679 log2 (difference from the parental peptide)
chain 1 EEDDDTAYAPLTCYFT	-3.92 log2 (difference from the parental peptide)
chain 1 EEDDVTAYAPLTCYFT	-3.13 log2 (difference from the parental peptide)
chain 1 EEDDITAYAPLTCYFT	-3.26 log2 (difference from the parental peptide)
chain 1 EEDDYTAYALLTCYFT	-9.7 log2 (difference from the parental peptide)
chain 1 EEDDYTAYADLTCYFT	-2.21 log2 (difference from the parental peptide)
chain 1 EEDDYTAYAVLTCYFT	-8.99 log2 (difference from the parental peptide)
